What follows are substances tested against HLA-A2 molecules (assay: T2A2 peptide binding assay to HLA-A2).

**Q.** “HPV-16 E6 agonist peptide E6-A1 (L19V) (peptide; other documents disagree on this pair)” was tested. Which T2A2 Binding did it give?
**A.** 1340

**Q.** Which T2A2 Binding does the source give for “HPV-16 E6 agonist peptide E6-A2 (C80V) (peptide; other documents disagree on this pair)” here?
**A.** 877

**Q.** For “HPV-16 E6 agonist peptide E6-A3 (Q91L/L99V) (peptide; other documents disagree on this pair)”, which T2A2 Binding is on record?
**A.** 1280

**Q.** “HPV-16 E6 native peptide E6-1 (E6 11-19)” was tested. Which T2A2 Binding did it give?
**A.** 853

**Q.** For “HPV-16 E7 agonist peptide E7-A1 (T19V) (peptide; other documents disagree on this pair)”, which T2A2 Binding is on record?
**A.** 1170

**Q.** “HPV-16 E7 agonist peptide E7-A2 (L15V) (peptide; other documents disagree on this pair)” was tested. Which T2A2 Binding did it give?
**A.** 1530

**Q.** For “HPV-16 E7 agonist peptide E7-A3 (T86V) (peptide; other documents disagree on this pair)”, which T2A2 Binding is on record?
**A.** 1260

Each substance was assayed against HLA-A2 molecules (assay: T2A2 peptide binding assay to HLA-A2, negative control).

**Q.** For NEG (Negative control) (peptide), which T2A2 Binding is on record?
**A.** 812

Source: patent US20190314479A1
